Test results taken from patent US20250171562A1.

B1: CIgG4F6A1(G4S)3 (Fc fusion)
chain 1: GPPCPPCPAPEFLGGPSVFLFPPKPKDTLMISRTPEVTCVVVDVSQEDPEVQFNWYVDGVEVHNAKTKPREEQFNSTYRVVSVLTVLHQDWLNGKEYKCKVSNKGLPSSIEKTISKAKGQPREPQVYTLPPCQEEMTKNQVSLWCLVKGFYPSDIAVEWESNGQPENNYKTTPPVLDSDGSFFLYSRLTVDKSRWQEGNVFSCSVMHEALHNHYTQKSLSLSLGKGGGGSGGGGSGGGGSDVQLQESGGGLVQAGGSLRLSCAASGLTFGSYDMGWYRQAPGKQRELVGRIRNDGITYYADSVKGRFTMSRDNAKNTVYLQMNSLKPEDTAVYYCAADGTGLGHYDYWGQGTQVTVS
chain 2: GPPCPPCPAPEFLGGPSVFLFPPKPKDTLMISRTPEVTCVVVDVSQEDPEVQFNWYVDGVEVHNAKTKPREEQFNSTYRVVSVLTVLHQDWLNGKEYKCKVSNKGLPSSIEKTISKAKGQPREPQVCTLPPSQEEMTKNQVSLSCAVKGFYPSDIAVEWESNGQPENNYKTTPPVLDSDGSFFLVSRLTVDKSRWQEGNVFSCSVMHEALHNHYTQKSLSLSLGKGGGGSGGGGSGGGGSEVQLLESGGGLVQPGGSLRLSCAASGFTFGNYDMAWVRQAPGKRPEWVSSIDTGGDITHYADSVKGRFTISRDNAKNTLYLQMNSLRPEDTAVYWCATDEEYALGPNEFDYYGQGTLVTVSS
B2: CIgG4B1A1(RS) (Fc fusion)
chain 1: GPPCPPCPAPEFLGGPSVFLFPPKPKDTLMISRTPEVTCVVVDVSQEDPEVQFNWYVDGVEVHNAKTKPREEQFNSTYRVVSVLTVLHQDWLNGKEYKCKVSNKGLPSSIEKTISKAKGQPREPQVYTLPPCQEEMTKNQVSLWCLVKGFYPSDIAVEWESNGQPENNYKTTPPVLDSDGSFFLYSRLTVDKSRWQEGNVFSCSVMHEALHNHYTQKSLSLSLGKRSQVQLQESGGGLVQTGGSLRLSCAVHGRTFSNTGMGWFRQAPGNERQFVAIISPSGTSTYYADSVKGRFTISRDPAKNTVYLQMNSLKMDDTAVYYCAASYGSNWSTLRHQRRNEYDAWGQGTQVAVS
chain 2: GPPCPPCPAPEFLGGPSVFLFPPKPKDTLMISRTPEVTCVVVDVSQEDPEVQFNWYVDGVEVHNAKTKPREEQFNSTYRVVSVLTVLHQDWLNGKEYKCKVSNKGLPSSIEKTISKAKGQPREPQVCTLPPSQEEMTKNQVSLSCAVKGFYPSDIAVEWESNGQPENNYKTTPPVLDSDGSFFLVSRLTVDKSRWQEGNVFSCSVMHEALHNHYTQKSLSLSLGKRSEVQLLESGGGLVQPGGSLRLSCAASGFTFGNYDMAWVRQAPGKRPEWVSSIDTGGDITHYADSVKGRFTISRDNAKNTLYLQMNSLRPEDTAVYWCATDEEYALGPNEFDYYGQGTLVTVSS
B3: CIgG4F6A1(RS) (Fc fusion)
chain 1: GPPCPPCPAPEFLGGPSVFLFPPKPKDTLMISRTPEVTCVVVDVSQEDPEVQFNWYVDGVEVHNAKTKPREEQFNSTYRVVSVLTVLHQDWLNGKEYKCKVSNKGLPSSIEKTISKAKGQPREPQVYTLPPCQEEMTKNQVSLWCLVKGFYPSDIAVEWESNGQPENNYKTTPPVLDSDGSFFLYSRLTVDKSRWQEGNVFSCSVMHEALHNHYTQKSLSLSLGKRSDVQLQESGGGLVQAGGSLRLSCAASGLTFGSYDMGWYRQAPGKQRELVGRIRNDGITYYADSVKGRFTMSRDNAKNTVYLQMNSLKPEDTAVYYCAADGTGLGHYDYWGQGTQVTVS
chain 2: GPPCPPCPAPEFLGGPSVFLFPPKPKDTLMISRTPEVTCVVVDVSQEDPEVQFNWYVDGVEVHNAKTKPREEQFNSTYRVVSVLTVLHQDWLNGKEYKCKVSNKGLPSSIEKTISKAKGQPREPQVCTLPPSQEEMTKNQVSLSCAVKGFYPSDIAVEWESNGQPENNYKTTPPVLDSDGSFFLVSRLTVDKSRWQEGNVFSCSVMHEALHNHYTQKSLSLSLGKRSEVQLLESGGGLVQPGGSLRLSCAASGFTFGNYDMAWVRQAPGKRPEWVSSIDTGGDITHYADSVKGRFTISRDNAKNTLYLQMNSLRPEDTAVYWCATDEEYALGPNEFDYYGQGTLVTVSS
B4: NIgG4B1A1(G4S)1 (Fc fusion)
chain 1: QVQLQESGGGLVQTGGSLRLSCAVHGRTFSNTGMGWFRQAPGNERQFVAIISPSGTSTYYADSVKGRFTISRDPAKNTVYLQMNSLKMDDTAVYYCAASYGSNWSTLRHQRRNEYDAWGQGTQVAVSGGGGSGPPCPPCPAPEFLGGPSVFLFPPKPKDTLMISRTPEVTCVVVDVSQEDPEVQFNWYVDGVEVHNAKTKPREEQFNSTYRVVSVLTVLHQDWLNGKEYKCKVSNKGLPSSIEKTISKAKGQPREPQVYTLPPCQEEMTKNQVSLWCLVKGFYPSDIAVEWESNGQPENNYKTTPPVLDSDGSFFLYSRLTVDKSRWQEGNVFSCSVMHEALHNHYTQKSLSLSLGK
chain 2: EVQLLESGGGLVQPGGSLRLSCAASGFTFGNYDMAWVRQAPGKRPEWVSSIDTGGDITHYADSVKGRFTISRDNAKNTLYLQMNSLRPEDTAVYWCATDEEYALGPNEFDYYGQGTLVTVSSGGGGSGPPCPPCPAPEFLGGPSVFLFPPKPKDTLMISRTPEVTCVVVDVSQEDPEVQFNWYVDGVEVHNAKTKPREEQFNSTYRVVSVLTVLHQDWLNGKEYKCKVSNKGLPSSIEKTISKAKGQPREPQVCTLPPSQEEMTKNQVSLSCAVKGFYPSDIAVEWESNGQPENNYKTTPPVLDSDGSFFLVSRLTVDKSRWQEGNVFSCSVMHEALHNHYTQKSLSLSLGK
B5: NIgG4F6A1(G4S)2 (Fc fusion)
chain 1: DVQLQESGGGLVQAGGSLRLSCAASGLTFGSYDMGWYRQAPGKQRELVGRIRNDGITYYADSVKGRFTMSRDNAKNTVYLQMNSLKPEDTAVYYCAADGTGLGHYDYWGQGTQVTVSGGGGSGGGGSGPPCPPCPAPEFLGGPSVFLFPPKPKDTLMISRTPEVTCVVVDVSQEDPEVQFNWYVDGVEVHNAKTKPREEQFNSTYRVVSVLTVLHQDWLNGKEYKCKVSNKGLPSSIEKTISKAKGQPREPQVYTLPPCQEEMTKNQVSLWCLVKGFYPSDIAVEWESNGQPENNYKTTPPVLDSDGSFFLYSRLTVDKSRWQEGNVFSCSVMHEALHNHYTQKSLSLSLGK
chain 2: EVQLLESGGGLVQPGGSLRLSCAASGFTFGNYDMAWVRQAPGKRPEWVSSIDTGGDITHYADSVKGRFTISRDNAKNTLYLQMNSLRPEDTAVYWCATDEEYALGPNEFDYYGQGTLVTVSSGGGGSGGGGSGPPCPPCPAPEFLGGPSVFLFPPKPKDTLMISRTPEVTCVVVDVSQEDPEVQFNWYVDGVEVHNAKTKPREEQFNSTYRVVSVLTVLHQDWLNGKEYKCKVSNKGLPSSIEKTISKAKGQPREPQVCTLPPSQEEMTKNQVSLSCAVKGFYPSDIAVEWESNGQPENNYKTTPPVLDSDGSFFLVSRLTVDKSRWQEGNVFSCSVMHEALHNHYTQKSLSLSLGK
B6: CIgG4F6A1(G4S)2 (Fc fusion)
chain 1: GPPCPPCPAPEFLGGPSVFLFPPKPKDTLMISRTPEVTCVVVDVSQEDPEVQFNWYVDGVEVHNAKTKPREEQFNSTYRVVSVLTVLHQDWLNGKEYKCKVSNKGLPSSIEKTISKAKGQPREPQVYTLPPCQEEMTKNQVSLWCLVKGFYPSDIAVEWESNGQPENNYKTTPPVLDSDGSFFLYSRLTVDKSRWQEGNVFSCSVMHEALHNHYTQKSLSLSLGKGGGGSGGGGSDVQLQESGGGLVQAGGSLRLSCAASGLTFGSYDMGWYRQAPGKQRELVGRIRNDGITYYADSVKGRFTMSRDNAKNTVYLQMNSLKPEDTAVYYCAADGTGLGHYDYWGQGTQVTVS
chain 2: GPPCPPCPAPEFLGGPSVFLFPPKPKDTLMISRTPEVTCVVVDVSQEDPEVQFNWYVDGVEVHNAKTKPREEQFNSTYRVVSVLTVLHQDWLNGKEYKCKVSNKGLPSSIEKTISKAKGQPREPQVCTLPPSQEEMTKNQVSLSCAVKGFYPSDIAVEWESNGQPENNYKTTPPVLDSDGSFFLVSRLTVDKSRWQEGNVFSCSVMHEALHNHYTQKSLSLSLGKGGGGSGGGGSEVQLLESGGGLVQPGGSLRLSCAASGFTFGNYDMAWVRQAPGKRPEWVSSIDTGGDITHYADSVKGRFTISRDNAKNTLYLQMNSLRPEDTAVYWCATDEEYALGPNEFDYYGQGTLVTVSS
B7: NIgG4F6A1(G4S)3 (Fc fusion)
chain 1: DVQLQESGGGLVQAGGSLRLSCAASGLTFGSYDMGWYRQAPGKQRELVGRIRNDGITYYADSVKGRFTMSRDNAKNTVYLQMNSLKPEDTAVYYCAADGTGLGHYDYWGQGTQVTVSGGGGSGGGGSGGGGSGPPCPPCPAPEFLGGPSVFLFPPKPKDTLMISRTPEVTCVVVDVSQEDPEVQFNWYVDGVEVHNAKTKPREEQFNSTYRVVSVLTVLHQDWLNGKEYKCKVSNKGLPSSIEKTISKAKGQPREPQVYTLPPCQEEMTKNQVSLWCLVKGFYPSDIAVEWESNGQPENNYKTTPPVLDSDGSFFLYSRLTVDKSRWQEGNVFSCSVMHEALHNHYTQKSLSLSLGK
chain 2: EVQLLESGGGLVQPGGSLRLSCAASGFTFGNYDMAWVRQAPGKRPEWVSSIDTGGDITHYADSVKGRFTISRDNAKNTLYLQMNSLRPEDTAVYWCATDEEYALGPNEFDYYGQGTLVTVSSGGGGSGGGGSGGGGSGPPCPPCPAPEFLGGPSVFLFPPKPKDTLMISRTPEVTCVVVDVSQEDPEVQFNWYVDGVEVHNAKTKPREEQFNSTYRVVSVLTVLHQDWLNGKEYKCKVSNKGLPSSIEKTISKAKGQPREPQVCTLPPSQEEMTKNQVSLSCAVKGFYPSDIAVEWESNGQPENNYKTTPPVLDSDGSFFLVSRLTVDKSRWQEGNVFSCSVMHEALHNHYTQKSLSLSLGK
B8: CIgG4F6A1(G4S)1 (Fc fusion)
chain 1: GPPCPPCPAPEFLGGPSVFLFPPKPKDTLMISRTPEVTCVVVDVSQEDPEVQFNWYVDGVEVHNAKTKPREEQFNSTYRVVSVLTVLHQDWLNGKEYKCKVSNKGLPSSIEKTISKAKGQPREPQVYTLPPCQEEMTKNQVSLWCLVKGFYPSDIAVEWESNGQPENNYKTTPPVLDSDGSFFLYSRLTVDKSRWQEGNVFSCSVMHEALHNHYTQKSLSLSLGKGGGGSDVQLQESGGGLVQAGGSLRLSCAASGLTFGSYDMGWYRQAPGKQRELVGRIRNDGITYYADSVKGRFTMSRDNAKNTVYLQMNSLKPEDTAVYYCAADGTGLGHYDYWGQGTQVTVS
chain 2: GPPCPPCPAPEFLGGPSVFLFPPKPKDTLMISRTPEVTCVVVDVSQEDPEVQFNWYVDGVEVHNAKTKPREEQFNSTYRVVSVLTVLHQDWLNGKEYKCKVSNKGLPSSIEKTISKAKGQPREPQVCTLPPSQEEMTKNQVSLSCAVKGFYPSDIAVEWESNGQPENNYKTTPPVLDSDGSFFLVSRLTVDKSRWQEGNVFSCSVMHEALHNHYTQKSLSLSLGKGGGGSEVQLLESGGGLVQPGGSLRLSCAASGFTFGNYDMAWVRQAPGKRPEWVSSIDTGGDITHYADSVKGRFTISRDNAKNTLYLQMNSLRPEDTAVYWCATDEEYALGPNEFDYYGQGTLVTVSS

Key:
[1] = biological target: mixture of three Der p 2 specific recombinant human IgE clones H10, H12, P4E (human) (UniProt P01854); experiment: RBL-SX38 IgE displacement, FACS
[2] = biological target: IgE on basophils of allergic donors (human) (UniProt P01854); experiment: displacement of IgE from FcεRI on basophils, whole blood of an allergic donor, flow cytometry of surface IgE [panel C]
[3] = biological target: IgE on basophils of allergic donors (human) (UniProt P01854); experiment: displacement of IgE from FcεRI on basophils, whole blood of an allergic donor, flow cytometry of surface IgE [panel B]

IgE on basophils of allergic donors (human), sequence (P01854 1-428): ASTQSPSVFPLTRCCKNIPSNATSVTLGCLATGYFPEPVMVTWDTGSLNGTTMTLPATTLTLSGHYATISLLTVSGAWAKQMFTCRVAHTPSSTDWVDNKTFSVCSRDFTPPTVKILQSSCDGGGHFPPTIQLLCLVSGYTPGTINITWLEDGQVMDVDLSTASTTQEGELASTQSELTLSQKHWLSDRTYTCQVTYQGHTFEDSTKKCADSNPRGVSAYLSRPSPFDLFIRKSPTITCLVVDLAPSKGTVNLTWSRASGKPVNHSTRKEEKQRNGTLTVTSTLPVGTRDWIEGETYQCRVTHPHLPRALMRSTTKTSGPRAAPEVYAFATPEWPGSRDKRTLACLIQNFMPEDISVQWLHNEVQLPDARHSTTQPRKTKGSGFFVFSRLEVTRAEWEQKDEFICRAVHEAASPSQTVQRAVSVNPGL
mixture of three Der p 2 specific recombinant human IgE clones H10, H12, P4E (human), sequence (P01854 other isoform, or with tags, fused parts or gaps): as the sequence (P01854 1-428) above, with L428K counted along it

Row | Binder | EC50 [1] | Max effect/effect 1 µM [1] | EC50 (read off the curve) [2] | EC50 (read off the curve) [3]
1 | B1 | 7.9 nM | 90% | – | –
2 | B2 | 84.9 nM | 92% | 20 nM | 10 nM
3 | B3 | – | 96% | – | –
4 | B4 | 3 nM | 99% | 3 nM | 4 nM
5 | B5 | 2.3 nM | 76% | – | –
6 | B6 | 16.6 nM | 98% | – | –
7 | B7 | 2.7 nM | 87% | – | –
8 | B8 | 59.9 nM | 95% | – | –
